To fix the notation:
B1: RAB22A (parent)
chain: FVEDSFDPNINPTIGASFMTKTVQ
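Note: lentivirally expressed fusions sorted by FACS into six bins by GFP to DsRed ratio, PSI derived from sequencing read proportions per bin multiplied by bin number.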

The variants in this data set derive from B1. Nature of the data set: protein stability index of a GFP-peptide fusion (GPS, HEK-293T) (PSI 1-6); higher = more stable. To be noted: c terminus: a fixed tail appended.
As to FVEDSFDPNINPTIGASAMTKTVQ [F18A], the protein stability index worked out at 3.22.

In the case of FVEDSFDPNINPTIGASVMTKTVQ [F18V], the protein stability index was determined as 3.07.

With FVEDSFDPNINPTIGASLMTKTVQ [F18L], the protein stability index turned out to be 2.56.

Regarding FVEDSFDPNINPTIGASKMTKTVQ [F18K], the protein stability index amounted to 2.79.

Regarding FVEDSFDPNINPTIGASSMTKTVQ [F18S], the protein stability index amounted to 3.29.

On to FVEDSFDPNINPTIGASMMTKTVQ [F18M], for which the protein stability index was determined as 2.65.

Turning to FVEDSFDPNINPTIGASTMTKTVQ [F18T], the protein stability index turned out to be 3.15.

For the variant FVEDSFDPNINPTIGASRMTKTVQ [F18R], the protein stability index came out at 2.83.

Regarding FVEDSFDPNINPTIGASEMTKTVQ [F18E], the protein stability index came to 3.37.

For the variant FVEDSFDPNINPTIGASHMTKTVQ [F18H], the protein stability index was 3.24.

On to FVEDSFDPNINPTIGASYMTKTVQ [F18Y], for which the protein stability index stood at 3.08.

Consider FVEDSFDPNINPTIGASWMTKTVQ [F18W], for which the protein stability index came out at 2.08.

As for FVEDSFDPNINPTIGASCMTKTVQ [F18C], the protein stability index amounted to 3.17.

On to FVEDSFDPNINPTIGASIMTKTVQ [F18I], for which the protein stability index was determined as 3.32.

As to FVEDSFDPNINPTIGASGMTKTVQ [F18G], the protein stability index stood at 3.35.

Consider FVEDSFDPNINPTIGASPMTKTVQ [F18P], for which the protein stability index amounted to 2.98.

For the variant FVEDSFDPNINPTIGASDMTKTVQ [F18D], the protein stability index was 3.45.

Take FVEDSFDPNINPTIGASQMTKTVQ [F18Q]: the protein stability index stood at 3.52.

FVEDSFDPNINPTIGASFDTKTVQ [M19D]: the protein stability index came out at 3.24.

For FVEDSFDPNINPTIGASFITKTVQ [M19I], the protein stability index was 2.25.

For FVEDSFDPNINPTIGASFGTKTVQ [M19G], the protein stability index is 2.4.

As to FVEDSFDPNINPTIGASFPTKTVQ [M19P], the protein stability index was found to be 2.62.

Take FVEDSFDPNINPTIGASFVTKTVQ [M19V]: the protein stability index amounted to 2.29.

Consider FVEDSFDPNINPTIGASFYTKTVQ [M19Y], for which the protein stability index amounted to 2.08.

As to FVEDSFDPNINPTIGASFFTKTVQ [M19F], the protein stability index worked out at 1.73.

Turning to FVEDSFDPNINPTIGASFNTKTVQ [M19N], the protein stability index turned out to be 2.99.

For FVEDSFDPNINPTIGASFSTKTVQ [M19S], the protein stability index worked out at 2.64.

For the variant FVEDSFDPNINPTIGASFCTKTVQ [M19C], the protein stability index came out at 2.66.

On to FVEDSFDPNINPTIGASFWTKTVQ [M19W], for which the protein stability index came out at 3.23.

Turning to FVEDSFDPNINPTIGASFRTKTVQ [M19R], the protein stability index is 2.46.

With FVEDSFDPNINPTIGASFTTKTVQ [M19T], the protein stability index came to 2.81.

Consider FVEDSFDPNINPTIGASFLTKTVQ [M19L], for which the protein stability index was 2.22.

As for FVEDSFDPNINPTIGASFHTKTVQ [M19H], the protein stability index was 2.12.

As for FVEDSFDPNINPTIGASFETKTVQ [M19E], the protein stability index came to 3.36.

For FVEDSFDPNINPTIGASFATKTVQ [M19A], the protein stability index stood at 3.11.

FVEDSFDPNINPTIGASFQTKTVQ [M19Q]: the protein stability index came out at 2.38.

Turning to FVEDSFDPNINPTIGASFKTKTVQ [M19K], the protein stability index amounted to 2.1.

In the case of FVEDSFDPNINPTIGASFMTKMVQ [T22M], the protein stability index worked out at 2.11.

Consider FVEDSFDPNINPTIGASFMTKPVQ [T22P], for which the protein stability index is 2.75.

Consider FVEDSFDPNINPTIGASFMTKNVQ [T22N], for which the protein stability index is 2.25.

In the case of FVEDSFDPNINPTIGASFMTKQVQ [T22Q], the protein stability index was determined as 2.45.

In the case of FVEDSFDPNINPTIGASFMTKDVQ [T22D], the protein stability index amounted to 2.85.

As to FVEDSFDPNINPTIGASFMTKWVQ [T22W], the protein stability index came to 1.23.

For FVEDSFDPNINPTIGASFMTKAVQ [T22A], the protein stability index worked out at 2.43.

For FVEDSFDPNINPTIGASFMTKSVQ [T22S], the protein stability index amounted to 2.26.

Take FVEDSFDPNINPTIGASFMTKKVQ [T22K]: the protein stability index was determined as 2.77.

As for FVEDSFDPNINPTIGASFMTKLVQ [T22L], the protein stability index was determined as 1.78.

As to FVEDSFDPNINPTIGASFMTKIVQ [T22I], the protein stability index was determined as 1.6.

For FVEDSFDPNINPTIGASFMTKGVQ [T22G], the protein stability index is 2.25.

Consider FVEDSFDPNINPTIGASFMTKEVQ [T22E], for which the protein stability index came out at 2.91.

Take FVEDSFDPNINPTIGASFMTKYVQ [T22Y]: the protein stability index stood at 1.73.

For the variant FVEDSFDPNINPTIGASFMTKCVQ [T22C], the protein stability index was determined as 2.35.

FVEDSFDPNINPTIGASFMTKVVQ [T22V]: the protein stability index amounted to 2.2.

For FVEDSFDPNINPTIGASFMTKHVQ [T22H], the protein stability index came to 2.09.

For the variant FVEDSFDPNINPTIGASFMTKRVQ [T22R], the protein stability index worked out at 2.34.

Regarding FVEDSFDPNINPTIGASFMTKFVQ [T22F], the protein stability index was found to be 2.02.

As for FVEDSFDPNINPTIYASFMTKTVQ [G15Y], the protein stability index came to 1.9.

Take FVEDSFDPNINPTIVASFMTKTVQ [G15V]: the protein stability index is 1.87.

For FVEDSFDPNINPTILASFMTKTVQ [G15L], the protein stability index turned out to be 2.06.

For FVEDSFDPNINPTIDASFMTKTVQ [G15D], the protein stability index turned out to be 2.86.

As for FVEDSFDPNINPTINASFMTKTVQ [G15N], the protein stability index stood at 2.41.

For the variant FVEDSFDPNINPTIWASFMTKTVQ [G15W], the protein stability index worked out at 1.85.

Turning to FVEDSFDPNINPTIHASFMTKTVQ [G15H], the protein stability index turned out to be 2.08.

FVEDSFDPNINPTICASFMTKTVQ [G15C]: the protein stability index is 2.03.

Consider FVEDSFDPNINPTIKASFMTKTVQ [G15K], for which the protein stability index came to 2.1.

FVEDSFDPNINPTIFASFMTKTVQ [G15F]: the protein stability index came out at 2.33.

FVEDSFDPNINPTIPASFMTKTVQ [G15P]: the protein stability index amounted to 2.42.

Take FVEDSFDPNINPTITASFMTKTVQ [G15T]: the protein stability index stood at 2.22.

Take FVEDSFDPNINPTIRASFMTKTVQ [G15R]: the protein stability index is 1.92.

FVEDSFDPNINPTIIASFMTKTVQ [G15I]: the protein stability index came to 1.66.

Regarding FVEDSFDPNINPTIEASFMTKTVQ [G15E], the protein stability index is 2.86.

For FVEDSFDPNINPTIQASFMTKTVQ [G15Q], the protein stability index worked out at 2.38.

Turning to FVEDSFDPNINPTIAASFMTKTVQ [G15A], the protein stability index is 2.46.

Regarding FVEDSFDPNINPTIMASFMTKTVQ [G15M], the protein stability index was 2.06.

With FVEDSFDPNINPTISASFMTKTVQ [G15S], the protein stability index is 2.4.

Turning to FVEDSFDPNINPTIGQSFMTKTVQ [A16Q], the protein stability index is 2.61.

As for FVEDSFDPNINPTIGWSFMTKTVQ [A16W], the protein stability index is 2.15.

Regarding FVEDSFDPNINPTIGRSFMTKTVQ [A16R], the protein stability index was 2.26.

On to FVEDSFDPNINPTIGHSFMTKTVQ [A16H], for which the protein stability index turned out to be 2.11.

As for FVEDSFDPNINPTIGKSFMTKTVQ [A16K], the protein stability index is 1.97.

As to FVEDSFDPNINPTIGFSFMTKTVQ [A16F], the protein stability index was determined as 2.07.

Take FVEDSFDPNINPTIGPSFMTKTVQ [A16P]: the protein stability index came to 2.54.

As to FVEDSFDPNINPTIGESFMTKTVQ [A16E], the protein stability index stood at 3.38.

Consider FVEDSFDPNINPTIGLSFMTKTVQ [A16L], for which the protein stability index was determined as 1.81.

As for FVEDSFDPNINPTIGGSFMTKTVQ [A16G], the protein stability index was 2.56.

Turning to FVEDSFDPNINPTIGSSFMTKTVQ [A16S], the protein stability index stood at 2.86.

For the variant FVEDSFDPNINPTIGDSFMTKTVQ [A16D], the protein stability index stood at 2.55.

In the case of FVEDSFDPNINPTIGVSFMTKTVQ [A16V], the protein stability index was determined as 1.81.

As for FVEDSFDPNINPTIGNSFMTKTVQ [A16N], the protein stability index was found to be 2.74.

On to FVEDSFDPNINPTIGTSFMTKTVQ [A16T], for which the protein stability index is 2.26.

Turning to FVEDSFDPNINPTIGYSFMTKTVQ [A16Y], the protein stability index stood at 1.95.

As for FVEDSFDPNINPTIGISFMTKTVQ [A16I], the protein stability index turned out to be 2.11.

On to FVEDSFDPNINPTIGMSFMTKTVQ [A16M], for which the protein stability index turned out to be 1.75.

In the case of FVEDSFDPNINPTIGCSFMTKTVQ [A16C], the protein stability index worked out at 1.8.

The values above are taken from the supplement of paper PMC10567573.
